From PMC4602035

Assays:
[1] = target: SecYEG in nanodiscs (titration with FtsY(NBD)) (E. coli) (UniProt P0AGA2); experiment: other fluorescence titration
[2] = target: SecY(S111C)EG labeled with MDCC at position 111 of SecY (E. coli) (UniProt P0AGA2); experiment: FRET or BRET
[3] = target: nontranslating ribosomes (E. coli) (UniProt P0ADZ0); experiment: co-sedimentation

**Q.** How did the Kd [1] turn out when “FtsY(A26C) labeled with NBD at position 26 (from UniProt P10121 1-497) (receptor)” was run?
**A.** Its Kd is 160 nM.

B1: FtsY(F196C) labeled with BODIPY FL at position 196 (receptor)
chain: MAKEKKRGFFSWLGFGQKEQTPEKETEVQNEQPVVEEIVQAQEPVKASEQAVEEQPQAHTEAEAETFAADVVEVTEQVAESEKAQPEAEVVAQPEPVVEETPEPVAIEREELPLPEDVNAEAVSPEEWQAEAETVEIVEAAEEEAAKEEITDEELETALAAEAAEEAVMVVPPAEEEQPVEEIAQEQEKPTKEGFCARLKRSLLKTKENLGSGFISLFRGKKIDDDLFEELEEQLLIADVGVETTRKIITNLTEGASRKQLRDAEALYGLLKEEMGEILAKVDEPLNVEGKAPFVILMVGVNGVGKTTTIGKLARQFEQQGKSVMLAAGDTFRAAAVEQLQVWGQRNNIPVIAQHTGADSASVIFDAIQAAKARNIDVLIADTAGRLQNKSHLMEELKKIVRVMKKLDVEAPHEVMLTIDASTGQNAVSQAKLFHEAVGLTGITLTKLDGTAKGGVIFSVADQFGIPIRYIGVGERIEDLRPFKADDFIEALFARED
modifications: BODIPY FL (Bpy) on cysteine 196
**Q.** B1 was tested. Which Kd [2] did it give?
**A.** The Kd was 180 nM.

B2: SRP present in the ribosome and RNC preparations (complex)
chain: MFDNLTDRLSRTLRNISGRGRLTEDNVKDTLREVRMALLEADVALPVVREFINRVKEKAVGHEVNKSLTPGQEFVKIVRNELVAAMGEENQTLNLAAQPPAVVLMAGLQGAGKTTSVGKLGKFLREKHKKKVLVVSADVYRPAAIKQLETLAEQVGVDFFPSDVGQKPVDIVNAALKEAKLKFYDVLLVDTAGRLHVDEAMMDEIKQVHASINPVETLFVVDAMTGQDAANTAKAFNEALPLTGVVLTKVDGDARGGAALSIRHITGKPIKFLGVGEKTEALEPFHPDRIASRILGMGDVLSLIEDIESKVDRAQAEKLASKLKKGDGFDLNDFLEQLRQMKNMGGMASLMGKLPGMGQIPDNVKSQMDDKVLVRMEAIINSMTMKERAKPEIIKGSRKRRIAAGCGMQVQDVNRLLKQFDDMQRMMKKMKKGGMAKMMRSMKGMMPPGFPGR
**Q.** B2 was tested. Which percent of ribosomes/RNCs with SRP bound [3] did it give?
**A.** The percent of ribosomes/RNCs with SRP bound was 25%.
